Reference: patent US20110052551A1, “CARDIAC MYOCYTE MORPHOGENIC COMPOSITIONS AND METHODS OF USE THEREFOR” (priority 2008, published 2011)
Entries after “also recorded” stand apart in the source; their conditions may differ.

Assays:
Type in all cases: cell-based, mice
[1] = system: unfractionated BMMNCs; experiment: Immunocytochemistry for pan-hematopoietic marker CD45; settings: after 21 days of culture; percent of total cells
Method: (§1) Immunocytochemistry. Cells were fixed on glass cover-slides with 4% paraformaldehyde for 20 minutes at 4° C. Cells were washed four times and permeabilized with BD PERM/WASH™ (containing saponin; BD Biosciences, San Jose, Calif., United States of America). For immunostaining, separate preparations of BD PERM/WASH™ containing primary monoclonal antibodies against either cardiac troponin T (cTnT; Santa Cruz Biotechnology, Santa Cruz, Calif., United States of America) or cardiac myosin heavy chain (cMyHC; Novus Biologicals, Inc., Littleton, Colo., United States of America) or connexin-43 or Oct-4 were prepared; all primary antibodies, save cMyHC, were purchased from Santa Cruz Biotechnology. Each preparation also contained primary monoclonal antibodies against nestin, glial fibrillary acidic protein (GFAP), CD11B, Gr-1 (myeloid lineage markers), the CD45 epitope, myogenin
These preparations were then applied separately (i.e., mixtures either with cTnT or with cMyHC) or, for co-immunostaining experiments, in combinations to cells for 16 hours at 4° C. and 37° C. for the final hour. […]

[2] = system: unfractionated BMMNCs; experiment: qRT-PCR of pluripotency markers Oct-4 and Nanog in cultured BMMNCs; settings: BMMNCs cultured 21 days, 150 ng/ml; normalized to 18S rRNA
Source text: Isolation and culture of unfractionated BM-derived mononuclear cells (BMMNCs). For each experiment, two mice were euthanized by CO2 inhalation followed by cervical dislocation and their femurs and tibias were removed and placed in Dulbecco's Modified Eagle Medium/F12 (DMEM/F12; Invitrogen Corp.). The bones were stripped of soft tissue with fine forceps exposing the long bone shafts. The BM was flushed into and suspended in fresh DMEM/F12 using a 23-gauge needle and 5-ml syringe. The BM was further dispersed by repeated passage through the 23-gauge needle for 10 minutes.
After filtering cells through a 70 μm nylon mesh filter, the MNC fraction (BMMNCs) were separated using FICOLL-PAQUE™ (Sigma Aldrich, St. Louis, Mo., United States of America) density-gradient centrifugation as described in (Zuba-Surma et al., 2006). See also FIG. 9A. The viability of unfractionated BMMNCs was assessed by Trypan blue (Sigma Aldrich) staining. Approximately 15×10^6 unfractionated BMMNCs were obtained from each mouse. Adult unfractionated BMMNCs were seeded (n=5×10^5 cells/well) in 6-well tissue culture plates (lower chamber of a 6-well tissue culture TRANSWELL® system; Corning Inc. Life Sciences, Lowell, Mass., United States of America) on fibronectin (FN)-coated glass coverslips (Fischer Scientific). […]
Assessment of mRNA expression by quantitative real-time RT-PCR (qRT-PCR). […]

[3] = system: unfractionated BMMNCs; experiment: Immunocytochemistry for Oct-4-positive BMMNCs; settings: 21 days, 150 ng/ml
Method: Additionally, to assess the influence of Wnt3a on cellular differentiation, unfractionated BMMNCs were cultured separately in the presence of 150 ng/ml of recombinant Wnt3a protein under the same conditions used to culture unfractionated BMMNCs, using pcDNA3/293 cells containing the empty vector as controls (see FIG. 9A).
as §1, with “myogenin […]” for “myogenin”

B1: Wnt3a: recombinant Wnt3a protein, canonical Wnt, used at 150 ng/ml (protein, UniProt P56704 19-352, looked up)
Protein Wnt-3a: SYPIWWSLAVGPQYSSLGSQPILCASIPGLVPKQLRFCRNYVEIMPSVAEGIKIGIQECQHQFRGRRWNCTTVHDSLAIFGPVLDKATRESAFVHAIASAGVAFAVTRSCAEGTAAICGCSSRHQGSPGKGWKWGGCSEDIEFGGMVSREFADARENRPDARSAMNRHNNEAGRQAIASHMHLKCKCHGLSGSCEVKTCWWSQPDFRAIGDFLKDKYDSASEMVVEKHRESRGWVETLRPRYTYFKVPTERDLVYYEASPNFCEPNPETGSFGTRDRTCNVSSHGIDGCDLLCCGRGHNARAERRREKCRCVFHWCCYVSCQECTRVYDVHTCK
[1]
  cells positive for CD45: 69.9±2.9%
[2]
  increase in Nanog mRNA expression compared with baseline: 158±0.6 fold
  increase in Oct-4 mRNA expression compared with baseline: 177±0.4 fold
[3]
  number of Oct-4-positive BMMNCs compared with untreated control: marked increase; also recorded: a much greater number
